Measurements: the supplement of paper PMC7877785
± gives the uncertainty stated by the source.

Assay: self-splicing fitness, log relative to wild type (ln ratio); higher = more splicing; Tetrahymena group I intron in knt gene, E. coli kanamycin selection, DiMSum; sequences stand for … in CUCUCU…GGAGGGAAAAGUUAUCAGGCAUGCACCUGGUAGCUAGUCUUUAAACCAAUAGAUUGCAUCGGUUUAAAAGGCAAGACCGUCAAAUUGCGGGAAAGGGGUCAACAGCCGUUCAGUACCAAGUCUCAGGGGAAACUUUGAGAUGGCCUUGCAAAGGGUAUGGUAAUAAGCUGACGGACAUGGUCCUAACCACGCAGCCAAGUCCUAAGUCAACAGAUCUUCUGUUGAUAUGGAUGCAGUUCACAGACUAAAUGUCGGUCGGGGAAGAUGUAUUCUUCUCAUAAGAUAUAGUCGGACCUCUCCUUAAUGGGAGCUAGCGGAUGAAGUGAUGCAACACUGGAGCCGCUGGGAACUAAUUUGUAUGCGAAAGUAUAUUGAUUAGUUUUGGAGUACUCGUGGUCG
Summary of the method: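 Fitness was computed with DiMSum as the error-weighted combination of replicate fold changes, kanamycin versus none, each normalised to wild type. The library randomised all eight intron nucleotides of the P1ex region, with the intron placed in the knt kanamycin-resistance gene on pET-22b(+) in E. coli BL21(DE3). Six replicate transformations were grown overnight at 37°C or 30°C on LB agar with or without 25 μg/mL kanamycin, plus 100 μg/mL carbenicillin, 50 μM IPTG and 0.2% rhamnose. Pooled colonies were amplicon-sequenced on an Illumina HiSeq 2500.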

Sequence	self-splicing fitness (ln) (30 °C)	self-splicing fitness (ln) (37 °C)
GUAAAGCAAUAUUACGAGCG	-0.0732 ± 0.09	0.212 ± 0.12
GUAAAGCAAUAUUACGAUCG	-0.724 ± 0.075	0.373 ± 0.11
GUAAAGCAAUAUUACGAUGG	-1.81 ± 0.081	-0.952 ± 0.1
GUAAAGCAAUAUUACGCAGG	-1.96 ± 0.12	-0.168 ± 0.14
GUAAAGCAAUAUUACGCCAA	-0.7 ± 0.17	-0.982 ± 0.26
GUAAAGCAAUAUUACGCCAU	-1.89 ± 0.1	-0.44 ± 0.12
GUAAAGCAAUAUUACGCGGA	-1.51 ± 0.086	-1.3 ± 0.11
GUAAAGCAAUAUUACGCUGU	-0.603 ± 0.083	-1.16 ± 0.12
GUAAAGCAAUAUUACGCUUA	-1.27 ± 0.11	-0.77 ± 0.14
GUAAAGCAAUAUUACGGCCA	-0.497 ± 0.11	0.704 ± 0.17
GUAAAGCAAUAUUACGGCUC	-0.0413 ± 0.071	0.298 ± 0.1
GUAAAGCAAUAUUACGGUCG	-0.377 ± 0.056	-0.0786 ± 0.088
GUAAAGCAAUAUUACGUAGA	-2.33 ± 0.1	-1.32 ± 0.12
GUAAAGCAAUAUUACGUUAU	-2.57 ± 0.14	-1.23 ± 0.17
GUAAAGCAAUAUUACGUUCA	-0.419 ± 0.072	0.177 ± 0.12
GUAAAGCAAUAUUACGUUCG	-0.724 ± 0.061	-0.407 ± 0.084
GUAAAGCAAUAUUACGUUUG	-2.28 ± 0.081	-1.34 ± 0.094
GUACAGCAAUAUUACGACCA	-1.85 ± 0.25	-0.829 ± 0.33
GUACAGCAAUAUUACGACCC	-0.186 ± 0.36	0.979 ± 0.36
GUACAGCAAUAUUACGAGGA	-3.11 ± 0.29	-1.88 ± 0.23
GUACAGCAAUAUUACGAGUA	–	-2.65 ± 0.31
GUACAGCAAUAUUACGCACC	-2.67 ± 0.26	-2.35 ± 0.38
GUACAGCAAUAUUACGCCUA	-1.06 ± 0.099	-0.254 ± 0.09
GUACAGCAAUAUUACGCUAA	-2.37 ± 0.14	-0.948 ± 0.11

Sequence	self-splicing fitness (ln) (30 °C)	self-splicing fitness (ln) (37 °C)
GUACAGCAAUAUUACGGACG	-3.05 ± 0.14	-0.547 ± 0.12
GUACAGCAAUAUUACGGACU	-1.74 ± 0.062	-0.781 ± 0.081
GUACAGCAAUAUUACGGCGA	-1.14 ± 0.18	-1.09 ± 0.14
GUACAGCAAUAUUACGGGAU	-3.85 ± 0.15	-2.59 ± 0.13
GUACAGCAAUAUUACGGGCU	-3.98 ± 0.3	-2.1 ± 0.21
GUACAGCAAUAUUACGUAAC	-2.18 ± 0.14	-1.11 ± 0.12
GUACAGCAAUAUUACGUAUA	-1.77 ± 0.11	-1 ± 0.12
GUACAGCAAUAUUACGUCGC	-2.57 ± 0.15	-0.812 ± 0.16
GUACAGCAAUAUUACGUGGG	-3.76 ± 0.13	-3.18 ± 0.14
GUACAGCAAUAUUACGUGGU	-3.43 ± 0.16	-2.49 ± 0.17
GUACAGCAAUAUUACGUUAG	-2.37 ± 0.15	-1.74 ± 0.17
GUACAGCAAUAUUACGUUUU	-3.88 ± 0.17	-2.72 ± 0.14
GUAGAGCAAUAUUACGAACG	-2.44 ± 0.22	-1.38 ± 0.2
GUAGAGCAAUAUUACGAAUC	-1.28 ± 0.2	-0.812 ± 0.29
GUAGAGCAAUAUUACGACAC	-0.732 ± 0.15	0.357 ± 0.2
GUAGAGCAAUAUUACGCAAU	-2.52 ± 0.11	-0.0736 ± 0.11
GUAGAGCAAUAUUACGCAGG	-1.51 ± 0.15	-1.59 ± 0.15
GUAGAGCAAUAUUACGCGGA	-1.47 ± 0.14	-0.734 ± 0.12
GUAGAGCAAUAUUACGCUGG	-1.56 ± 0.17	-1.53 ± 0.24
GUAGAGCAAUAUUACGCUUC	-3.16 ± 0.45	-1.63 ± 0.27
GUAGAGCAAUAUUACGGAAG	-2.83 ± 0.29	-1.42 ± 0.4
GUAGAGCAAUAUUACGGCAU	-0.0916 ± 0.085	0.127 ± 0.12
GUAGAGCAAUAUUACGGCCU	-0.447 ± 0.11	-0.0153 ± 0.14
GUAGAGCAAUAUUACGGCUC	-1.57 ± 0.26	-0.26 ± 0.45

Sequence	self-splicing fitness (ln) (30 °C)	self-splicing fitness (ln) (37 °C)
GUAGAGCAAUAUUACGGGGC	–	-1.52 ± 0.36
GUAGAGCAAUAUUACGGGUA	-4.17 ± 0.35	-1.75 ± 0.19
GUAGAGCAAUAUUACGGUAA	-1.74 ± 0.15	-1.3 ± 0.19
GUAGAGCAAUAUUACGGUUA	-1.35 ± 0.11	-0.0418 ± 0.13
GUAGAGCAAUAUUACGUAGU	–	-0.866 ± 0.15
GUAGAGCAAUAUUACGUAUA	-1.7 ± 0.28	-0.319 ± 0.25
GUAGAGCAAUAUUACGUCGG	-1.87 ± 0.15	-1.61 ± 0.22
GUAGAGCAAUAUUACGUGCA	-0.339 ± 0.11	0.541 ± 0.18
GUAGAGCAAUAUUACGUUGC	-4.29 ± 0.3	-3.11 ± 0.24
GUAGAGCAAUAUUACGUUUC	-1.87 ± 0.15	-0.679 ± 0.17
GUAGAGCAAUAUUACGUUUG	-2.91 ± 0.24	-2.23 ± 0.29
GUAUAGCAAUAUUACGACUG	-2.88 ± 0.33	-2.23 ± 0.33
GUAUAGCAAUAUUACGAGAG	-1.56 ± 0.22	-2.9 ± 0.34
GUAUAGCAAUAUUACGAGUU	-3.29 ± 0.19	-1.17 ± 0.14
GUAUAGCAAUAUUACGCCCG	-1.63 ± 0.17	-1.37 ± 0.23
GUAUAGCAAUAUUACGGCAA	-0.453 ± 0.39	-0.521 ± 0.35
GUAUAGCAAUAUUACGGCAU	-0.587 ± 0.081	-0.661 ± 0.1
GUAUAGCAAUAUUACGGGCC	–	-1.55 ± 0.27
GUAUAGCAAUAUUACGGGGU	-4.08 ± 0.27	-1.4 ± 0.14
GUAUAGCAAUAUUACGGUCC	-0.391 ± 0.28	-1.19 ± 0.46
GUAUAGCAAUAUUACGUAAU	-2.43 ± 0.14	-0.699 ± 0.14
GUAUAGCAAUAUUACGUCAU	-2.03 ± 0.17	-0.747 ± 0.17
GUAUAGCAAUAUUACGUGAG	-1.85 ± 0.13	-1.42 ± 0.17
GUAUAGCAAUAUUACGUGAU	-2.29 ± 0.15	-1.71 ± 0.17

Sequence	self-splicing fitness (ln) (30 °C)	self-splicing fitness (ln) (37 °C)
GUCAAGCAAUAUUACGAGAG	-2.41 ± 0.18	-2.31 ± 0.27
GUCAAGCAAUAUUACGAUAG	-4.6 ± 0.42	-3.02 ± 0.47
GUCAAGCAAUAUUACGCCAU	-4.64 ± 0.42	-3.01 ± 0.18
GUCAAGCAAUAUUACGCCCG	-2.15 ± 0.21	-1.11 ± 0.2
GUCAAGCAAUAUUACGCGGA	-2.98 ± 0.17	-2.02 ± 0.16
GUCAAGCAAUAUUACGCGUA	-1.32 ± 0.08	-0.362 ± 0.077
GUCAAGCAAUAUUACGCUAA	-1.48 ± 0.15	-1.45 ± 0.14
GUCAAGCAAUAUUACGCUAG	-2.83 ± 0.15	-2 ± 0.14
GUCAAGCAAUAUUACGUAAA	-0.78 ± 0.058	-0.463 ± 0.07
GUCAAGCAAUAUUACGUAAC	-1.33 ± 0.17	-0.545 ± 0.14
GUCAAGCAAUAUUACGUCGU	-1.68 ± 0.066	-0.826 ± 0.078
GUCAAGCAAUAUUACGUGGU	-4.8 ± 0.3	-3.09 ± 0.16
GUCAAGCAAUAUUACGUGUC	-2.72 ± 0.13	-1.46 ± 0.12
GUCCAGCAAUAUUACGAAAC	-0.222 ± 0.15	-0.568 ± 0.2
GUCCAGCAAUAUUACGAACC	-1.97 ± 0.093	-0.224 ± 0.11
GUCCAGCAAUAUUACGAAUA	0.0949 ± 0.13	-0.595 ± 0.15
GUCCAGCAAUAUUACGACAU	-0.524 ± 0.012	0.0313 ± 0.032
GUCCAGCAAUAUUACGAGCG	-2.31 ± 0.14	-0.864 ± 0.15
GUCCAGCAAUAUUACGAUCC	-0.959 ± 0.087	-0.16 ± 0.11
GUCCAGCAAUAUUACGAUGA	-1.49 ± 0.084	-0.996 ± 0.092
GUCCAGCAAUAUUACGAUGU	-0.9 ± 0.07	-0.235 ± 0.083
GUCCAGCAAUAUUACGCAAA	-1.46 ± 0.12	-0.457 ± 0.11
GUCCAGCAAUAUUACGCAAU	-0.658 ± 0.071	0.419 ± 0.087
GUCCAGCAAUAUUACGCAGA	-3.39 ± 0.4	-1.87 ± 0.22
